Results from patent US8030025B2, “Antibodies directed to angiopoietin-1 and angiopoietin-2 and uses thereof” (Amgen Inc., dated 2011).
Where a chain is given by its changes, count along the chain named.

B1: H5L7 (antibody, V domains shown)
VH: EVQLVQSGGGVVQPGRSLRLSCAASGFTFSSYGMHWVRQAPGKGLEWVSYISSSGSTIYYADSVKGRFTISRDNAKNSLYLQMNSLRAEDTAVYYCARDLLDYDIWTGYGYWGQGTLVTVSS
VL: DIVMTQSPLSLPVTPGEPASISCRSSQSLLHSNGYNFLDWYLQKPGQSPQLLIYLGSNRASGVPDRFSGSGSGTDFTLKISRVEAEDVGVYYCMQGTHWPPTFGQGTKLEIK
B2: H4L2 (antibody, V domains shown)
VH: B1 VH with I105L, W106L
VL: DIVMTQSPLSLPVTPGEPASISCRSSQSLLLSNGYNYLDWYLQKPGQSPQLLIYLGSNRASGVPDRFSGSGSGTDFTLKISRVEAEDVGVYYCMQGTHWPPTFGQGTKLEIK
B3: H4L12 (antibody, V domains shown)
VH: B1 VH with I105L, W106L
VL: not shown
B4: H3L7 (antibody, V domains shown)
VH: B1 VH with Y59Q, W106L
VL: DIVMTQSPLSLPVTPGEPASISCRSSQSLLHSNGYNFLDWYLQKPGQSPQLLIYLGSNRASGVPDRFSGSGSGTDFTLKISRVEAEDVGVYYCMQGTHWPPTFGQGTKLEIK
B5: H4L6 (antibody, V domains shown)
VH: B1 VH with I105L, W106L
VL: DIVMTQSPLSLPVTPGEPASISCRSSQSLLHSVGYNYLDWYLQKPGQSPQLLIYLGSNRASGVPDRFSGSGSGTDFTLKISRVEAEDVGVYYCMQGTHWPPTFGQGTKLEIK
B6: H10L7 (antibody, V domains shown)
VH: B1 VH with W106L, Y111L
VL: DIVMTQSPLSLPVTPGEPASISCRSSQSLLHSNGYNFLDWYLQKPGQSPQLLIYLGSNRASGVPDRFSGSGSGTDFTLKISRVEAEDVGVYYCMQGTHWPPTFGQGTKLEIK
B7: H4L7 (antibody, V domains shown)
VH: B1 VH with I105L, W106L
VL: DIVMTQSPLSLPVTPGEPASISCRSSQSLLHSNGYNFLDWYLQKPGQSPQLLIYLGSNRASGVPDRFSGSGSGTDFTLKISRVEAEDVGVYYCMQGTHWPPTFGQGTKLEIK
B8: H4L11 (antibody, V domains shown)
VH: B1 VH with I105L, W106L
VL: not shown
B9: H4L11 (IgG2) (antibody, V domains shown)
VH: B1 VH with I105L, W106L
VL: not shown
B10: H5L12 (antibody, V domains shown)
VH: B1 VH
VL: not shown
B11: H5L6 (antibody, V domains shown)
VH: B1 VH
VL: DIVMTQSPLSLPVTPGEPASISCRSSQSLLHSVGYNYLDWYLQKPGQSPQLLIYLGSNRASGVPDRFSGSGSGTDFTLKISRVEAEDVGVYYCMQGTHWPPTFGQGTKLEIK
B12: H5L8 (antibody, V domains shown)
VH: B1 VH
VL: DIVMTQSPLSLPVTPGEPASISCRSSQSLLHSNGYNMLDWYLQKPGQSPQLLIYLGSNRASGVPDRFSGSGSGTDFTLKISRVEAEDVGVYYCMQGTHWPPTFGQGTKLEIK
B13: H4L13 (antibody, V domains shown)
VH: B1 VH with I105L, W106L
VL: not shown
B14: H6L6 (antibody, V domains shown)
VH: B1 VH with W106Y
VL: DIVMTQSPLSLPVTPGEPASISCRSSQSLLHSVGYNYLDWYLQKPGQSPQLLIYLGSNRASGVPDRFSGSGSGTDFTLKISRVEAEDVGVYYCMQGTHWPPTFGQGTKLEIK
B15: H5L4 (antibody, V domains shown)
VH: B1 VH
VL: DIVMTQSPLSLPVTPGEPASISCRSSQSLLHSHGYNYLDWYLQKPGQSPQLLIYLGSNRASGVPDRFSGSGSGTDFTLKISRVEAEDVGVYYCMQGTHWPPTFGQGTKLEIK
B16: H6L7 (antibody, V domains shown)
VH: B1 VH with W106Y
VL: not shown
B17: H11L7 (antibody, V domains shown)
VH: B1 VH with W106L, Y111M
VL: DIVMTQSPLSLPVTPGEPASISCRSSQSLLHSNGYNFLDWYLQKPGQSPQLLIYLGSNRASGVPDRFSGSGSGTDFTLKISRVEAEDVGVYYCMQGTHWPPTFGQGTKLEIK
B18: H4L4 (IgG2) (antibody, V domains shown)
VH: B1 VH with I105L, W106L
VL: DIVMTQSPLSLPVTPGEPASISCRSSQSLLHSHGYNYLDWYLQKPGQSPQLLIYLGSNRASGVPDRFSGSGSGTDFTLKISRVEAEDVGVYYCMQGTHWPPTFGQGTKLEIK
B19: H6L8 (antibody, V domains shown)
VH: B1 VH with W106Y
VL: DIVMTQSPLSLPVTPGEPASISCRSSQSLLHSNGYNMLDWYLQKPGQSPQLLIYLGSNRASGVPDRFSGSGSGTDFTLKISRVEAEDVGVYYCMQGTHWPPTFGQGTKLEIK
B20: H5L11 (antibody, V domains shown)
VH: B1 VH
VL: not shown
B21: 536 LC1 (antibody, V domains shown)
VH: B1 VH with W106L
VL: not shown
B22: H5L1 (antibody, V domains shown)
VH: B1 VH
VL: not shown
B23: H6L7 (IgG2) (antibody, V domains shown)
VH: B1 VH with W106Y
VL: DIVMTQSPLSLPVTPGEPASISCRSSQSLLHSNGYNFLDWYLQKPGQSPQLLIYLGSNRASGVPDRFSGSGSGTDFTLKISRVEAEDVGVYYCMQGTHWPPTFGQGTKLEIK
B24: H5L9 (antibody, V domains shown)
VH: B1 VH
VL: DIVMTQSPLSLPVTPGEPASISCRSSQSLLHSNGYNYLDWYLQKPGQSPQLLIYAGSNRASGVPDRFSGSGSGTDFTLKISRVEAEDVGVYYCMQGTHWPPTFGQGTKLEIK
B25: H4L4 (antibody, V domains shown)
VH: B1 VH with I105L, W106L
VL: not shown
B26: H2L7 (antibody, V domains shown)
VH: B1 VH with Y59E, W106L
VL: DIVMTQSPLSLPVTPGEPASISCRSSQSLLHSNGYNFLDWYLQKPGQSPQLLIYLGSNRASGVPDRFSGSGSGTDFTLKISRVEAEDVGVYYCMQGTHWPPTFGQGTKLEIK

Legend:
[1] = target: biotinylated human angiopoietin 2 (human, UniProt O15123, biotin); assay: HTRF neutralization; biotin-hAng2 vs huTie-2-Fc-APC
[2] = target: biotinylated human angiopoietin 1 (human, UniProt Q15389, biotin); assay: HTRF neutralization; biotin-hAng1 vs huTie-2-Fc-APC
Human Ang2 = Human Ang2 (human, UniProt O15123); assay: neutralization ELISA; coated angiopoietin vs Tie2-Fc
Cyno Ang2 = Cyno Ang2 (cynomolgus monkey, UniProt A0A2K5VNX6); assay: as above
Murine Ang2 = Murine Ang2 (mouse, UniProt O35608); assay: as above
Rabbit Ang2 = Rabbit Ang2 (rabbit, UniProt G1T9B3); assay: as above
Rabbit Ang1 = Rabbit Ang1 (rabbit, UniProt G1SK98); assay: as above
Murine Ang1 = Murine Ang1 (mouse, UniProt O08538); assay: as above
Human Ang1 = Human Ang1 (human, UniProt Q15389); assay: as above
Cyno Ang1 = Cyno Ang1 (cynomolgus monkey, UniProt A0A2K5VW43); assay: as above

Binder | IC50 [1] | IC90 [1] | IC50 [2] | IC90 [2] | IC50 (Human Ang2) | IC50 (Cyno Ang2) | IC50 (Murine Ang2) | IC50 (Rabbit Ang2) | IC50 (Rabbit Ang1) | IC50 (Murine Ang1) | IC50 (Human Ang1) | IC50 (Cyno Ang1)
B1 | 0.07 nM | 0.23 nM | 0.07 nM | 0.42 nM | – | – | – | – | – | – | – | –
B2 | 0.06 nM | 0.19 nM | 0.66 nM | 6.8 nM | – | – | – | – | – | – | – | –
B3 | 0.06 nM | 0.21 nM | 0.63 nM | 8.7 nM | – | – | – | – | – | – | – | –
B4 | 0.06 nM | 0.23 nM | 0.58 nM | 7.1 nM | – | – | – | – | – | – | – | –
B5 | 0.06 nM | 0.2 nM | 0.74 nM | 15 nM | – | – | – | – | – | – | – | –
B6 | 0.06 nM | 0.19 nM | 0.15 nM | 2.2 nM | – | – | – | – | – | – | – | –
B7 | 0.06 nM | 0.22 nM | 0.23 nM | 2.8 nM | – | – | – | – | – | – | – | –
B8 | 0.05 nM | 0.17 nM | 7.3 nM | 107 nM | – | – | – | – | – | – | – | –
B9 | – | – | – | – | 0.21 nM | 0.16 nM | 0.12 nM | 0.12 nM | 16 nM | 7.7 nM | 17 nM | –
B10 | 0.07 nM | – | – | – | – | – | – | – | – | – | – | –
B11 | 0.07 nM | 0.23 nM | 0.32 nM | 3.6 nM | – | – | – | – | – | – | – | –
B12 | 0.07 nM | 0.21 nM | 0.37 nM | 3.6 nM | – | – | – | – | – | – | – | –
B13 | 0.06 nM | 0.19 nM | 0.15 nM | 1.6 nM | – | – | – | – | – | – | – | –
B14 | 0.06 nM | 0.2 nM | 0.66 nM | 10 nM | – | – | – | – | – | – | – | –
B15 | 0.07 nM | 0.21 nM | 0.6 nM | 11 nM | – | – | – | – | – | – | – | –
B16 | 0.06 nM | 0.19 nM | 0.06 nM | 0.49 nM | – | – | – | – | – | – | – | –
B17 | 0.06 nM | 0.2 nM | 0.15 nM | 1.2 nM | – | – | – | – | – | – | – | –
B18 | – | – | – | – | 0.22 nM | 0.24 nM | 0.15 nM | 0.15 nM | 2.8 nM | 3.3 nM | 3.2 nM | 4 nM
B19 | 0.05 nM | 0.19 nM | 0.57 nM | 7.7 nM | – | – | – | – | – | – | – | –
B20 | 0.08 nM | 0.25 nM | 0.97 nM | 18 nM | – | – | – | – | – | – | – | –
B21 | – | – | – | – | 0.27 nM | 0.19 nM | 0.14 nM | 0.2 nM | 502 nM | 305 nM | 515 nM | 531 nM
B22 | 0.06 nM | – | – | – | – | – | – | – | – | – | – | –
B23 | – | – | – | – | 0.22 nM | 0.19 nM | 0.13 nM | 0.15 nM | 0.18 nM | 0.12 nM | 0.12 nM | 0.19 nM
B24 | 0.19 nM | 1.57 nM | 18 nM | 181 nM | – | – | – | – | – | – | – | –
B25 | 0.06 nM | 0.16 nM | 0.87 nM | 8.2 nM | – | – | – | – | – | – | – | –
B26 | 0.06 nM | 0.2 nM | 0.33 nM | 3.6 nM | – | – | – | – | – | – | – | –
